Test results taken from patent publication US8075919B2, “Methods for fabrication, uses and compositions of small spherical particles prepared by controlled phase separation” (Baxter International Inc., priority 2003, dated 2011).

Experiments:
[1] = target: porcine pancreatic elastase (PPE) (Sus scrofa, UniProt P00772); assay: Inhibition of porcine pancreatic elastase by rAAT (specific activity); type: biochemical
Method: To determine the specific activity, the rAAT small spherical particles were dissolved in 0.2M Tris-HCl pH 8.0 at room temperature. The resulting solution was analyzed by an assay which measures the capacity of rAAT to inhibit the ability of porcine pancreatic elastase (PPE) to hydrolyze synthetic peptides that contain a p-nitroanilide group at their C-terminus. The same solution of rAAT small spherical particles was then assayed for protein concentration using the Bicinchoninic Acid (BCA) assay. A control rAAT starting material solution was also analyzed in both assays. Because the activity assay was developed to determine the activity based on a concentration of 1 mg/ml protein per sample, the activity value was corrected based on the actual protein concentration as determined by BCA, giving the specific activity value:
[formula] Inhibition of Porcine Pancreatic Elastase by rAAT

[2] = test system: DNA-Methyl Green; details: listed value for the starting material; cited from earlier work

porcine pancreatic elastase (PPE), sequence (P00772 27-266): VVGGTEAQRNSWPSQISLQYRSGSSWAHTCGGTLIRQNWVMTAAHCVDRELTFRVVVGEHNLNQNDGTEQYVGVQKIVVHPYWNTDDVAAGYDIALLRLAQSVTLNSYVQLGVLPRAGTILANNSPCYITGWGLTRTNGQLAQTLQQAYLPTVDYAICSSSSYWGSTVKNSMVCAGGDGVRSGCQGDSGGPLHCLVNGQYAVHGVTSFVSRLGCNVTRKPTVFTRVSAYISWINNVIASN

Substance | specific activity ([1]; scale 100-300 mg (n = 12, column)) [IU/mg] | specific activity ([1]; scale 200-300 mg (n = 8, vessel)) [IU/mg] | theoretical activity as listed [2] [Ku/mg protein]
alpha-1-antitrypsin [control rAAT starting material] | 64.34 ± 4.95 | 65.87 ± 0.98 | 
DNase [DNase starting material] |  |  | 775
